assay: soluble on expression in E. coli; label from the status in PepcDB or PDB records

Sequence	soluble on expression in E. coli
MTSMEEMLREAANEVLQSRIPPGYVLYPNYEQYWSHEHGMFYNPDTEQFYRPEDKTVYQLNAEGSEYVLVERRKPTYWASRSYRKRAIDLLGSAEFKKFDQNEVNICEIAFGMVDKVIKGEEMEKEKEYLRSIANNKVALMQHRINKVFKGNRRRKNPHRQYVANVDESSGHVEYTLQVDDYFDWEDAYEDNSDDEFSEKDEQAVLMHQEGFDQPPCMRVMDALRRLHIITISGGYLGSDRDCEIVVSNQLLPERCAEIVYSEEAQCYSIEKLEDACILQVNGNNVKTSSPVDLCQGDSILLSGERFDVHVHNGSNTCPGCEPGLQQGDDDIAPVTTVPAKNIRGEVARRKNLKQMMKSYGIRPDDVLSEPIRKRPATGPSEMNIHRSEAPGSSSDMYGSCAAKPMPEGQRKFDLPSTSAAVAAAAAPKPLDSGNVGFKLLKSMGWSEGQGLGKEKQGHVEPVATEVKNNRKGLGANEKEPPTKSYKDQVLEKTKQRFNEKR	not soluble
MTSSSSPSQDTKRLAQTYPEGLRADALMEEDVAWNRGNDSQWDGEQFDRSDRAALRRVAGLSTELEDVTEVEYRQLRLERVVLVGVWTSGTVQDAENSLAELAALAETAGALVLDGVVQRRDKPDAATYIGSGKAEELRDVVLHTGADTVICDGELSPGQLIHLEDVVKVKVIDRTALILDIFAQHAKSREGKAQVALAQMQYMLPRLRGWGQSLSRQMGGGKGGGLATRGPGETKIETDRRRIREKMAKMRREIAEMKTGREIKRQERKRHKVPSVAIAGYTNAGKSSLLNRLTGAGVLVENALFATLDPTVRRAETPSGRLYTLADTVGFVRHLPHHLVEAFRSTMEEVGDSDLILHVVDGSHPVPEEQLAAVREVIRDVGATDVPEIVVINKADMADPLVLQRLLRIEKRAIAVSARTGQNIDQLLALIDNELPRPSVEIEALVPYTHGKLVARAHDEGEVISEEHTPEGTLLKVRVHEELAAELAPYVPAPLALEHHHHHH	not soluble
MTSVIPEQRNNPFYRDSATIASSDHTERGEWVTQAKCRNGDPDALFVRGAAQRRAAAICRHCPVAMQCCADALDNKVEFGVWGGLTERQRRALLRKKPHITNWAEYLAQGGEIAGV	not soluble
MTSVSGCGSVSLITNRSAFLGNGLQHRAVFLKPWSSSSLQSRSMVVEAKTKTSSEDRIARHSRIRKKVNGTTERPRLCVFRSNKHLYVQVIDDTKMHTLASASTKQKPISEEFDYTSGPTIEVAKKVGEVIAKSCLEKGITKVAFDRGGYPYHGRIEALAAAAREHGLQF	not soluble
MTTAFFVAADWLAEHIDDPEIQILDARMAPPGQEHRDMAGEYRAGHIPGALFFDIEALSDRASPLPHMMPRPEAFAVAMRELGVRQDKHLVIYDEGNLFSAPRAWWMLRTFGAEKVSILAGGLAGWQRDEWLLREGEEAHEGGEFEAKFAPQAVVRLTDVLLASHEKTAQIVDARPAARFNAQADEPRPGLRRGHIPGALNVPWTELVYEGELKTTDELNEVFFSHGVSFDRPIIASCGSGVTAAVVVLALATLDVPDVTLYDGAWSEWGARTDLPVEPA	not soluble
MTTAVTQAIIDGFFDASNGDPFATLGMHETEQGIEIRTLLPDANRMVVIERESGKEITELDCVDERGFFVGVIPNCRQFFAYQLQVFWGNEAQIIEDPYRFHPMID	not soluble
MTTHLSNVAPDLQNYLNAIGEPEHPVLTRLREKTGHHRMGKMAIAREQAAVLVWLAKLIRAEKYLEIGVFTGYSSTALALALPEHGRITACDINVTFTDTARQVWNEAGVAHKISLHLQPALLTLDDLIAQGEAGSYDLALIDADKPPTPQYFERCLKLVRQGGIIAIDNILLNGRVMREAASDAPPSVGILKDFNQNLPNDPRIVPITLPVGDGLTLLLKK	not soluble
MTTLKLFDIEHAWGLPRKVSPRFGARLILRGLHLDYLHDRASFVGEFPPAIKQQFVEAFPAMVKQLERLVATGEIDTTEQHCVSIEHAGFTCEADTLGSHGYLYIAIYQTKAKPLTTSNLTITR	not soluble
MTTLKVKQLANKKGLNILEDSIEINESGVDFQVAHVTEQNGDKWILRIPRRPESMRHALREKEALEIMKKHAAFQVPNWSIFSEELIAYKQLSGFPAATIDIEQQKYVWNFNEKNVPTEYYISLGKVLANVHSLSQQKFNNIGVEILTANELRTSMKQRMNRVKEQYHINQNLWDRWQAWLAEDSFWPSHVGVKHGDIHPGHILIDKKNNVTGLIDWTEVGIGDVSIDFTSHYLLFGKDGLTKLIHSYDNAGGKTWSRMDEHIIELLTTSSITVAEYAQVSGLKDMHEAAIHMLATEC	not soluble
MTTSAMTAPDTRRQLQHVETLRRFLRGDSCFVHDLRGMMDYHDGLSRRQQRAFCRASRVLTDPEPIQSEAEGENKQFTEHTHKVVSFFIKSVFVFPYLVLPNCCQVSVDRSRVPETGGRWLLEHHHHHH	not soluble
MTTVSNIHHASKPRLNTLLVTARDSPYDTTLPARTPVDFCRPGSQWRVMDIDLVLAPVDGSDQSERAAEYAIAVAERYDADLHLLFVIDERLHQDIDSGDVSATAIAEEHQAFTESIRDRFRDAHDGVFETSSATAFSETRLMQTPGSVVLDVAEDLDSDFIVVPREEGSEEAVGRAAIYVIEYASQPVLTV	not soluble
MTTVTVTTEIPPRDKMEDNSALYESTSAHIIEETEYVKKIRTTLQKIRTQMFKDEIRHDSTNHKLDAKHCGNLQQGSDSEMDPSCCSLDLLMKKIKGKDLQLLEMNKENEVLKIKLQASREAGAAALRNVAQRLFENYQTQSEEVRKKQEDSKQLLQVNKLEKEQKLKQHVENLNQVAEKLEEKHSQITELENLVQRMEKEKRTLLERKLSLENKLLQLKSSATYGKSCQDLQREISILQEQISHLQFVIHSQHQNLRSVIQEMEGLKNNLKEQDKRIENLREKVNILEAQNKELKTQVALSSETPRTKVSKAVSTSELKTEGVSPYLMLIRLRK	not soluble
MTTYPADTPIITQPPSPDSPSSSNGSSTSLSENLNNNSVSNQIEYVNQNNNSDNFTVGLGFLGASGNYGNYSSHLNNNLSISQNQSVSLNSSSSSVGAGLTPGNGSVGSTSNSSSAASSIQNIGLNSSLINSNTNNLSSSSHSMSGSNNNNSNNNVVNNYLTVYGNNGSSGGGSGSGGGSGPGADSPRIHCCRPCCPYSHHRRLCDPCYCSNRPESHRDSSSSEEVNDAQSDENTYFQFDFIGVDGHHARRVLPPSWRILRNSKAESSDESSLSDAVQTVDLPKIPQKKIRCVYSIDAEEIEGKKCMLECIRSSCLPRYVECHRRRRCSRKQRCHTTTQPPSPTTESLPTSTTTYEMNTTSLETSTTDISTITSTEEPISTTVKTHEQSSTSGMEFSTMSTTYEPITTTLETSTTDISIITSTEEPDTSTTTESNEQSSTTGMEFSTMSTTYEPITTSLETSTTDMLTNTSTEEPDISTTIEPNAQSTTYEMESSTVSVTYEPETTSLETSSTKVSSTTATGEPASTTMEANEHSSTFETESSTVPATNEPITTSFIPSTTDLSIITSTEEAKISTTMETDELSTTTESSYSTTQFTTFKIPTSSFSTLPMEGTSTKEQTTLSTEETSSATTATIFEKLSTTLFFEETQVTSTSDFTSSPRSIETTRVIEFDTSTELQTTSKTSTTTEDTTTVGTTTEMEMRRFWRLFG	not soluble
MTTYTTNDFSEIVFGRKSVRVYDETHKISHEEMLTMIQEATTAPSSVNMQPWRFVVVESEAGKEKLKPLIRFNTRQNETSSAMLLIFGDLNCHERGEEIYNQAYASGKMPKEVRDQQLAAIIPHYESLSREQMNDIVKIDASLAAMQFMLVARAHGYETNPIGGFEAEKLAETFGLDQERYVPVMILSVGKGMETGYESVRLAPEKITTFE	not soluble
MTVASLRGRTGTPVPKREVELRATWSSECVTRPMTEEERIKYGVAIPPKITNADGVQERRPILLPKKSKYAHVTKELVLTEFAKGKTAVQIEREQGMKPNTLYARLRAWGIRSPHSPKLRNETAAPPPSSSDTHRTDNRIDDIFWDVQIELRRAMSRFPRFNSAHEGYAVVLEELDEAWQAIKANDLIHARLGNDAGGRDGDPFPARPSDRRKGGGTATMTKAERSKSKRTATERTKLAIAPNPNRCFVLFSSTYLTAGSAIVSLNSLVRQLEKHPADHPIEDIRLDREALLMEILFVPEGGDPHAKHRSGPDQGI	not soluble
MTVDPASHITIPEADLARLRHCNHHDPHGFYGWHETEAGSVIRTRQVGATQVNLLIDDTSHVMTPIGDDIFAIDLGHRERADYRLEVTWPDQEPQVKADPYYFLPTVG	not soluble
MTVELKNEYLTVLINEAGAELSSVKSSDGIEYMWQADKTFWGRHAPVLFPIVGRLKDDQYTVAGQAYHMGQHGFARDNDFTVVNQTATQATFELTDSRATREMYPYAFRLRLIYTLTDHELTVNYNVHNPANQELLFSVGGHPAFNVPLADPAGTLADYKITVAPRKVYAHIPLQAPLNDAANADDFDLTKPLALSRDLFKDDALILDLNHHETTLMLDTDLDDHGVAMTIEDAPYVGMWSPYPAEAPFVCLEPWWGIADNVDSDGQLSHKMGINRLAANQTFDAKYAISFFLEHHHHHH	not soluble
MTVIIKSMETPEEIEGKSFVHWQTWREAYDDLLPAEFQETMTLERCRLFSQKYPENTLIAMDGVKIVGFISYGNCRDETIQAGEIIALYVLKDYYGKGIAQKLVKAALTDLNHFSEIFLWVLKDNKRAIAFYQKMGFTFDGQEKILELGKPIKEKRMVFYSK	not soluble
MTVLKLSHWRVLAELADGLPQHVSQLARMADMKPQQLNGFWQQMPAHIRGLLRQHDGYWRLVRPLAVFDAEGLRELGERSGFQTALKHECASSNDEILELARIAPDKAHKTICVTHLQSKGRGRQGRKWSHRLGECLMFSFGWVFDRPQYELGSLSPVAAVACRRALSRLGLDVQIKWPNDLVVGRDKLGGILIETVRTGGKTVAVVGIGINFVLPKEVENAASVQSLFQTASRRGNADAAVLLETLLVELDAVLLQYARDGFAPFVAEYQAANRDHGKAVLLLRDGETVFEGTVKGVDGQGVLHLETAEGKQTVVSGEISLRSDDRPVSVPKRRDSERFLLLDGGNSRLKWAWVENGTFATVGSAPYRDLSPLGAEWAEKADGNVRIVGCAVCGEFKKAQVQEQLARKIEWLPSSAQALGIRNHYRHPEEHGSDRWFNALGSRRFSRNACVVVSCGTAVTVDALTDDGHYLGGTIMPGFHLMKESLAVRTANLNRHAGKRYPFPTTTGNAVASGMMDAVCGSVMMMHGRLKEKTGAGKPVDVIITGGGAAKVAEALPPAFLAENTVRVADNLVIYGLLNMIAAEGREYEHI	not soluble
MTVNVVVTDMDGTFLDDAKQYDRVRFMAQYQELKKRNIEFVVASGNQYYQLISFFPELKDEISFVAENGALVYEHGKQLFHGELTRHESRIVIGELLKDKQLNFVACGLKSAYVSKNAPETFVALMAKHYHRLQPVNDYHDIDDILFKFSLNLPDEQIPLVIDKLHVSLDGIMKPVTSGFGFIDLIIPGLHKANGISRLLKRWNRSPQNVVAIGDSGNDAEMLKMAHYSFAMGNAADNIKALSRYHTDDNNHQGALNVIQAVLDGTDPF	not soluble
MTVQTKTKGLAWQEKPLSDNERLKTESNFLRGTILDDLKDPLTGGFKGDNFQLIRFHGMYEQDDRDIRAERAEAKLEPLKFM	not soluble
MTVTFQNNPVSISGSFPKVGDRLPSFTLCGADLNDLSNEDFKGKKIVMSIFPSIDTPVCSKSVKVLQNALMTRNDTVLLCVSADLPFAMSRFCTEHAVANVTNASFFREPAFTERFGVNLNEGALRGLAARAVIVADEFGVITHSELVNEITNEPDYDRILMSL	not soluble

— the DeepSol protein solubility set
